{"source": "patent US20240279325A1", "about": "(Chugai, published 2024)", "binders": {"B1": {"name": "IL6R-F652/IL6R-L (antibody, human IgG1, kappa)", "heavy": "QVQLQESGPGLVKPSETLSLTCAVSGHSISHDHAWSWVRQPPGEGLEWIGFISYSGITNYNPSLQGRVTISRDNSKNTLYLQMNSLRAEDTAVYYCARSLARTTAMDYWGEGTLVTVSSASTKGPSVFPLAPSSKSTSGGTAALGCLVKDYFPEPVTVSWNSGALTSGVHTFPAVLQSSGLYSLSSVVTVPSSSLGTQTYICNVNHKPSNTKVDKKVEPKSCDKTHTCPPCPAPELLGGDSVFLFPPKPKDTLYISRTPEVTCVVVDVSHEDPEVKFNWYVDGVEVHNAKTKPREEQYNSTYRVVSVLTVLHQDWLNGKEYKCKVSNKALPAPIEKTISKAKGQPREPQVYTLPPSRDELTKNQVSLTCLVKGFYPSDIAVEWESNGQPENNYKTTPPVLDSDGSFFLYSKLTVDKSRWQQGNVFSCSVMHEALHYHYTQKSLSLSP", "light": "not shown", "notes": "copies: 2 + 2"}, "B2": {"name": "IL6R-BP462/IL6R-L (antibody, human IgG1, kappa, name in EU numbering)", "heavy": "B1 heavy with E235D, G239D, Y254M, S269A, H270E, P273G, A332R, P398V, Y436N, K441E", "light": "not shown", "notes": "copies: 2 + 2"}, "B3": {"name": "IL6R-BP470/IL6R-L (antibody, human IgG1, kappa, name in EU numbering)", "heavy": "B1 heavy with E235D, G239D, Y254M, H270D, P273G, Y298D, A332R, E335T, Y436N, K441E", "light": "not shown", "notes": "copies: 2 + 2"}, "B4": {"name": "IL6R-BP198/IL6R-L (antibody, human IgG1, kappa, name in EU numbering)", "heavy": "B1 heavy with E235D, L236Y, Y254M, H270D, P273G, K328A, A332K, Y436N, K441E", "light": "not shown", "notes": "Alterations introduced into IL6R-B3, EU numbering; copies: 2 + 2"}, "B5": {"name": "IL6R-BP182/IL6R-L (antibody, human IgG1, kappa, name in EU numbering)", "heavy": "B1 heavy with E235D, Y254M, P273G, Y298D, A332K, Y436N, K441E", "light": "not shown", "notes": "copies: 2 + 2"}, "B6": {"name": "IL6R-BP514/IL6R-L (antibody, human IgG1, kappa, name in EU numbering)", "heavy": "B1 heavy with E235D, G239D, Y254M, H270E, P273G, E274F, Y436N, K441E", "light": "not shown", "notes": "copies: 2 + 2"}, "B7": {"name": "IL6R-BP112/IL6R-L (antibody, human IgG1, kappa, name in EU numbering)", "heavy": "B1 heavy with Y254M, P273G, Y436N, K441E", "light": "not shown", "notes": "Alterations introduced into IL6R-B3; also called P238D/P271G; copies: 2 + 2"}, "B8": {"name": "IL6R-BP195/IL6R-L (antibody, human IgG1, kappa, name in EU numbering)", "heavy": "QVQLQESGPGLVKPSETLSLTCAVSGHSISHDHAWSWVRQPPGEGLEWIGFISYSGITNYNPSLQGRVTISRDNSKNTLYLQMNSLRAEDTAVYYCARSLARTTAMDYWGEGTLVTVSSASTKGPSVFPLAPSSKSTSGGTAALGCLVKDYFPEPVTVSWNSGALTSGVHTFPAVLQSSGLYSLSSVVTVPSSSLGTQTYICNVNHKPSNTKVDKKVEPKSCDKTHTCPPCPAPDYLGDDSVFLFPPKPKDTLMISRTPEVTCVVVDVSDEDGEVKFNWYVDGVEVHNAKTKPREEQDNSTYRVVSVLTVLHQDWLNGKEYKCKVSNAALPKPIEKTISKAKGQPREPQVYTLPPSRDELTKNQVSLTCLVKGFYPSDIAVEWESNGQPENNYKTTPPVLDSDGSFFLYSKLTVDKSRWQQGNVFSCSVMHEALHNHYTQESLSLSP", "light": "not shown", "notes": "EU numbering; copies: 2 + 2"}, "B9": {"name": "IL6R-BP202/IL6R-L (antibody, human IgG1, kappa, name in EU numbering)", "heavy": "B8 heavy with D235E, Y236L, D270H, D298Y, K332R", "light": "not shown", "notes": "EU numbering; copies: 2 + 2"}}, "key": {"human FcγRIIb": {"molecular_target": "T1, human FcγRIIb (human, UniProt P31994 43-217)", "T1 sequence": "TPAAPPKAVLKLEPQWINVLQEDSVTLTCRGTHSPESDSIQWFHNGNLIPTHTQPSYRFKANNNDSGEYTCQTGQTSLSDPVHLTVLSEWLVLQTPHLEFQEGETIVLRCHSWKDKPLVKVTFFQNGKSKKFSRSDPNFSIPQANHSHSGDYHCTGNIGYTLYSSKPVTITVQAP", "experiment": "SPR (Biacore), amount bound against IL6R-F652/IL6R-L x 100", "text": "(§1) These variants were expressed and purified by the method of Reference Example 1. These Fc variants are called PD variants. Interactions of each PD variant with FcγRIIa type R (allotype R131) and FcγRIIb were comprehensively evaluated by the method of Reference Example 2."}, "[1]": {"molecular_target": "T2, human FcγRIIa type R (allotype R131) (human, UniProt P12318 36-217)", "T2 construct": "also called FcγRIIaR; R-type FcγRIIa", "T2 chain": "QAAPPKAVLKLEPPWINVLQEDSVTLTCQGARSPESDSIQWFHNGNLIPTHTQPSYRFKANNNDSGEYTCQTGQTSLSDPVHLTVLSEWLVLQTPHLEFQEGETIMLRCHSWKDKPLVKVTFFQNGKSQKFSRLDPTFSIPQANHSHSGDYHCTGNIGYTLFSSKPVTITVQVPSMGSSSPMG", "experiment": "SPR (Biacore), amount bound against IL6R-F652/IL6R-L x 100", "text": "as §1"}, "[2]": {"molecular_target": "T3, human FcγRIIIa type V (allotype V158) extracellular domain with C-terminal His tag (human, UniProt P08637 17-208)", "T3 construct": "also called FcγRIIIaV; FcγRIIIa V type", "experiment": "SPR (Biacore), captured antibody, FcγR analyte", "T3 sequence (P08637 other isoform, or with tags, fused parts or gaps)": "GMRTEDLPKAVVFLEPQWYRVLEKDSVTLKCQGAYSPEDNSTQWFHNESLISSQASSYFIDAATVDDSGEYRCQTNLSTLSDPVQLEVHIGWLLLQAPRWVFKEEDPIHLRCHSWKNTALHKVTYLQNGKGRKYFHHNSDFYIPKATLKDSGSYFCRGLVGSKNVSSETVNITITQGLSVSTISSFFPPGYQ"}, "[3]": {"molecular_target": "T4, human FcγRIIa type H (allotype H131) extracellular domain with C-terminal His tag (human, UniProt P12318 34-217)", "T4 construct": "also called FcγRIIaH", "T4 sequence": "T2 chain with R133H", "experiment": "SPR (Biacore), captured antibody, FcγR analyte"}, "[4]": {"molecular_target": "T5, human FcγRIa extracellular domain with C-terminal His tag (human, UniProt P12314 16-292)", "T5 construct": "extracellular domain; also called FrgRIa", "experiment": "SPR (Biacore), captured antibody, FcγR analyte", "T5 sequence (P12314 16-292)": "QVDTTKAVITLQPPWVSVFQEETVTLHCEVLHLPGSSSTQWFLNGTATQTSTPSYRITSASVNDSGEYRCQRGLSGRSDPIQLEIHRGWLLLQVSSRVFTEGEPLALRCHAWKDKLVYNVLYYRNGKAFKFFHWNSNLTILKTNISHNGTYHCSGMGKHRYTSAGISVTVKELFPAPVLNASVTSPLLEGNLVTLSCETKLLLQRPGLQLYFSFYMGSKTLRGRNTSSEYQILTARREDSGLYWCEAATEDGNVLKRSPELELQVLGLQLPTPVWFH"}, "[5]": {"molecular_target": "T6, human FcγRIIa type R (allotype R131) extracellular domain with C-terminal His tag (human, UniProt P12318 34-217)", "T6 construct": "extracellular domain; also called FcγRIIaR; FrgRIIaR", "T6 sequence (looked up)": "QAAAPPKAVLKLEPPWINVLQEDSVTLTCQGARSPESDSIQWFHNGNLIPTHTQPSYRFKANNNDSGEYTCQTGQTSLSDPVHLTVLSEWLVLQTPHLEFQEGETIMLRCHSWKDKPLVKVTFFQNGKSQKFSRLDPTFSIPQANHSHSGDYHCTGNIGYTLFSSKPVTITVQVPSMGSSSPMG", "experiment": "SPR (Biacore), captured antibody, FcγR analyte"}, "[6]": {"molecular_target": "T7, human FcγRIIa type H (allotype H131) extracellular domain with C-terminal His tag (human, UniProt P12318 34-217)", "T7 construct": "extracellular domain; also called FcγRIIaH; FrgRIIaH", "T7 sequence (looked up)": "T6 sequence (looked up) with R134H", "experiment": "SPR (Biacore), captured antibody, FcγR analyte"}, "[7]": {"molecular_target": "T8, human FcγRIIb extracellular domain with C-terminal His tag (human, UniProt P31994 43-217)", "T8 construct": "extracellular domain; also called FrgRIIb", "T8 sequence (looked up)": "T1 sequence", "experiment": "SPR (Biacore), captured antibody, FcγR analyte"}, "[8]": {"molecular_target": "T9, human FcγRIIIa type V (allotype V158) extracellular domain with C-terminal His tag (human, UniProt P08637 17-208)", "T9 construct": "extracellular domain; also called FcγRIIIaV; FrgRIIIaV", "experiment": "SPR (Biacore), captured antibody, FcγR analyte", "T9 sequence (P08637 17-208 F176V)": "as the sequence (P08637 other isoform, or with tags, fused parts or gaps) above, with S179A counted along it"}, "[9]": {"molecular_target": "T10, FcγRIa extracellular domain, C-terminal His tag (human, UniProt P12314 16-292)", "T10 construct": "extracellular domain; not shown: His tag at the C terminus", "T10 sequence (P12314 16-292)": "as the sequence (P12314 16-292) above", "experiment": "SPR (Biacore), antibody captured on chip, FcγR extracellular domain as analyte, 25 C"}, "[10]": {"molecular_target": "T11, human FcγRIIa type R (allotype R131) extracellular domain with C-terminal His tag (human, UniProt P12318 34-217)", "T11 construct": "also called FcγRIIaR", "T11 chain": "T2 chain", "experiment": "SPR (Biacore), captured antibody, FcγR analyte"}, "[11]": {"molecular_target": "T12, human FcγRIIa type R (allotype R131) extracellular domain with C-terminal His tag (human, UniProt P12318 34-217)", "T12 construct": "also called FcγRIIaR", "T12 chain": "T2 chain", "experiment": "SPR (Biacore), antibody captured, FcγR analyte"}, "[12]": {"molecular_target": "T13, human FcγRIIIa type V (allotype V158) extracellular domain with C-terminal His tag (human, UniProt P08637 17-208)", "T13 construct": "also called FcγRIIIaV", "experiment": "SPR (Biacore), antibody captured, FcγR analyte", "T13 sequence (P08637 other isoform, or with tags, fused parts or gaps)": "as the sequence (P08637 other isoform, or with tags, fused parts or gaps) above"}, "[13]": {"molecular_target": "T14, human FcγRIIb extracellular domain with C-terminal His tag (human, UniProt P31994 43-217)", "T14 construct": "extracellular domain; not shown: His tag at the C terminus", "T14 sequence (looked up)": "T1 sequence", "experiment": "SPR (Biacore); parent is IL6R-B3/IL6R-L"}, "[14]": {"molecular_target": "T14, human FcγRIIb extracellular domain with …", "experiment": "ratio of SPR KDs, FcγRIIaH over FcγRIIb"}, "[15]": {"molecular_target": "T14, human FcγRIIb extracellular domain with …", "experiment": "ratio of SPR KDs, FcγRIIaR over FcγRIIb"}, "[16]": {"molecular_target": "T15, human FcγRIa extracellular domain with C-terminal His tag (human, UniProt P12314 16-292)", "T15 construct": "not shown: His tag at the C terminus", "experiment": "SPR (Biacore), antibody captured, FcγR analyte", "T15 sequence (P12314 16-292)": "as the sequence (P12314 16-292) above"}, "[17]": {"molecular_target": "T16, human FcγRIIa type H (allotype H131) extracellular domain with C-terminal His tag (human, UniProt P12318 34-217)", "T16 construct": "extracellular domain; also called FcγRIIaH; not shown: His tag at the C terminus", "T16 sequence (looked up)": "T6 sequence (looked up) with R134H", "experiment": "SPR (Biacore), antibody captured, FcγR analyte"}, "[18]": {"molecular_target": "T14, human FcγRIIb extracellular domain with …", "experiment": "SPR (Biacore), antibody captured, FcγR analyte"}}, "note": "Where a chain is given by its changes, count along the chain named. Numbers in names are those of the source."}
{"binder": "B1", "values": [{"measurement": "relative binding activity", "setting": "human FcγRIIb", "value": 100, "unit": "IL6R-F652/IL6R-L = 100"}, {"measurement": "relative binding activity", "setting": "[1]", "value": 100, "unit": "IL6R-F652/IL6R-L = 100"}]}
{"binder": "B2", "values": [{"measurement": "Kd", "setting": "[2]", "value": 9, "unit": "µM"}]}
{"binder": "B3", "values": [{"measurement": "Kd", "setting": "[3]", "value": 10, "unit": "µM"}]}
{"binder": "B4", "values": [{"measurement": "relative binding activity", "setting": "[4]", "value": "104 % of IL6R-BF648/IL6R-L binding"}, {"measurement": "relative binding activity", "setting": "[5]", "value": "449 % of IL6R-BF648/IL6R-L binding"}, {"measurement": "relative binding activity", "setting": "[6]", "value": "188 % of IL6R-BF648/IL6R-L binding"}, {"measurement": "relative binding activity", "setting": "[7]", "value": "164 % of IL6R-BF648/IL6R-L binding"}, {"measurement": "relative binding activity", "setting": "[8]", "value": "157 % of IL6R-BF648/IL6R-L binding"}]}
{"binder": "B5", "values": [{"measurement": "Kd", "setting": "[9]", "value": 0.02, "unit": "µM"}]}
{"binder": "B6", "values": [{"measurement": "Kd", "setting": "[10]", "value": 3, "unit": "µM"}]}
{"binder": "B7", "values": [{"measurement": "Kd", "setting": "[11]", "value": 3.5, "unit": "µM"}, {"measurement": "Kd", "setting": "[12]", "value": 69, "unit": "µM"}]}
{"binder": "B8", "values": [{"measurement": "KD(IIb) of the parent polypeptide/KD(IIb) of altered polypeptide", "setting": "[13]", "value": 62.3, "unit": "fold"}, {"measurement": "KD(IIaH)/KD(IIb)", "setting": "[14]", "value": 201}, {"measurement": "KD(IIaR)/KD(IIb)", "setting": "[15]", "value": 18.2}, {"measurement": "Kd", "setting": "[16]", "value": 0.026, "unit": "µM"}]}
{"binder": "B9", "values": [{"measurement": "Kd", "setting": "[17]", "value": 92, "unit": "µM"}, {"measurement": "Kd", "setting": "[18]", "value": 0.054, "unit": "µM"}]}
